Measured values from US12604903B2 (priority 2019, dated 2026).

B1: TKPCQSDKDCKKFACRKPKVPKCINGFCKCVRAPKKVEPTKPCQSDKDCKKFACRKPKVPKCINGFCKCVR (protein)
chain: TKPCQSDKDCKKFACRKPKVPKCINGFCKCVRAPKKVEPTKPCQSDKDCKKFACRKPKVPKCINGFCKCVR
notes: two NCR13 monomers linked in tandem by the APKKVEP spacer peptide from MtDef5 defensin, 71 amino acids
growth inhibition of P. capsici (in words) (Phytophthora capsici): inhibited the growth | Phytophthora capsici MIC (Phytophthora capsici; in vitro growth inhibition): 3 µM | IC50 (Phytophthora capsici; read-out: Phytophthora capsici IC50, in vitro growth inhibition): 1500 nM | antifungal activity against A. brassicicola (in words) (Alternaria brassicicola): significantly more active | Alternaria brassicicola MIC (Alternaria brassicicola; in vitro growth inhibition): 1.5 µM | IC50 (Alternaria brassicicola; read-out: Alternaria brassicicola IC50, in vitro growth inhibition): 750 nM
